Test results from US20200390811A1.

Tested on: RISR-RIAD peptide with myc and ddk (FLAG) tags, expressed in T cells
Sequence (chain, as listed by the source): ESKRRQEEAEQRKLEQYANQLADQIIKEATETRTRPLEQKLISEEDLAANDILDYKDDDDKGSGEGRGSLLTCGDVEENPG

Protein kinase A (PKA), RI regulatory subunit
phosphorylation of Csk-S364 and Lck-Y505 (blot, FIG. 2): RISR-RIAD expression prevented phosphorylation of Csk-S364 and Lck-Y505
